In publication PMC4654587 one finds ratio to parent and stoichiometry N data, which are given here for five substances.

In experiment [1] the target is His6-CsuA/B (N-terminal donor strand sequence replaced by a His6-tag). The note with it: parent: est. 1.0; read off a plot.
The target of experiment [2] is His-tagged EcpB (wild type) (Escherichia coli) (UniProt P77188). In words: SEC. Background: In gel filtration, larger molecules generally elute earlier.

For the substance CsuC (wild type, without tag) R89A, in experiment [1], the ratio to parent came to 0.15.
With “CsuC (wild type, without tag) R89A; Y196F”, the ratio to parent in experiment [1] is 0.02.
On the same count and under the same terms, then CsuC (wild type, without tag) R174A, with 0.5; and CsuC (wild type, without tag) Y196F, with 0.13.
As usually defined, the stoichiometry N is a count of units in the complex or per binding partner. As for “EcpA with a Trp11Ala mutation (from UniProt P0AAA3 23-195) (natural protein)”, the stoichiometry N in experiment [2] is 1.
